The Human Domainome abundance scans (Beltran et al. 2025)
± gives the uncertainty stated by the source.

B1: Ankyrin-2, residues 3571 to 3650; numbered along this chain, Q01484 (parent)
chain: ERLAYIADHLGFSWTELARELDFTEEQIHQIRIENPNSLQDQSHALLKYWLERDGKHATDTNLVECLTKINRMDIVHLME
B2: Transcription elongation regulator 1-like protein, residues 448 to 504; numbered along this chain, Q5VWI1 (parent)
chain: LPLEERVTHFRDMLLERGVSAFSTWEKELHKIVFDPRYLLLNSEERKQIFEQFVKTR

Variants of: B1
Experiment: abundance fitness (aPCA) (normalised: wild type 0, dead -1); higher = more abundant; growth selection in yeast, the domain comes from the species named
Conditions: Homo sapiens

Row | Variant | abundance fitness
1 | ERLAYIADHLGFSWTELARELDFTEEQIHQIRIENPNSLQDQSHALLKYWLERDGKHATDTNLVECLTKINRMDFVHLME [I75F] | -0.371 ± 0.34
2 | ERLAYIADHLGFSWTELARELDFTEEQIHQIRIENPNSLQDQSHALLKYWLERDGKHATDTNLVECLTKINRMDIVHLKE [M79K] | -0.23 ± 0.27

Variants of: B2
Experiment: as above
Conditions: Homo sapiens

Row | Variant | abundance fitness
3 | VPLEERVTHFRDMLLERGVSAFSTWEKELHKIVFDPRYLLLNSEERKQIFEQFVKTR [L1V] | -0.4 ± 0.18
4 | WPLEERVTHFRDMLLERGVSAFSTWEKELHKIVFDPRYLLLNSEERKQIFEQFVKTR [L1W] | -0.717 ± 0.16
5 | IPLEERVTHFRDMLLERGVSAFSTWEKELHKIVFDPRYLLLNSEERKQIFEQFVKTR [L1I] | 2.04 ± 0.48
6 | SPLEERVTHFRDMLLERGVSAFSTWEKELHKIVFDPRYLLLNSEERKQIFEQFVKTR [L1S] | -0.082 ± 0.3
7 | FPLEERVTHFRDMLLERGVSAFSTWEKELHKIVFDPRYLLLNSEERKQIFEQFVKTR [L1F] | 0.408 ± 0.27
8 | APLEERVTHFRDMLLERGVSAFSTWEKELHKIVFDPRYLLLNSEERKQIFEQFVKTR [L1A] | -0.321 ± 0.33
9 | LCLEERVTHFRDMLLERGVSAFSTWEKELHKIVFDPRYLLLNSEERKQIFEQFVKTR [P2C] | 0.766 ± 0.23
10 | LLLEERVTHFRDMLLERGVSAFSTWEKELHKIVFDPRYLLLNSEERKQIFEQFVKTR [P2L] | -0.147 ± 0.26
11 | LRLEERVTHFRDMLLERGVSAFSTWEKELHKIVFDPRYLLLNSEERKQIFEQFVKTR [P2R] | 0.776 ± 0.092
12 | LKLEERVTHFRDMLLERGVSAFSTWEKELHKIVFDPRYLLLNSEERKQIFEQFVKTR [P2K] | 0.925 ± 0.075
13 | LNLEERVTHFRDMLLERGVSAFSTWEKELHKIVFDPRYLLLNSEERKQIFEQFVKTR [P2N] | 1.18 ± 0.37
14 | LQLEERVTHFRDMLLERGVSAFSTWEKELHKIVFDPRYLLLNSEERKQIFEQFVKTR [P2Q] | 0.364 ± 0.16
15 | LDLEERVTHFRDMLLERGVSAFSTWEKELHKIVFDPRYLLLNSEERKQIFEQFVKTR [P2D] | 1.26 ± 0.14
16 | LALEERVTHFRDMLLERGVSAFSTWEKELHKIVFDPRYLLLNSEERKQIFEQFVKTR [P2A] | 0.331 ± 0.18
17 | LVLEERVTHFRDMLLERGVSAFSTWEKELHKIVFDPRYLLLNSEERKQIFEQFVKTR [P2V] | -0.031 ± 0.34
18 | LTLEERVTHFRDMLLERGVSAFSTWEKELHKIVFDPRYLLLNSEERKQIFEQFVKTR [P2T] | 1.24 ± 0.085
19 | LSLEERVTHFRDMLLERGVSAFSTWEKELHKIVFDPRYLLLNSEERKQIFEQFVKTR [P2S] | 1.09 ± 0.14
20 | LWLEERVTHFRDMLLERGVSAFSTWEKELHKIVFDPRYLLLNSEERKQIFEQFVKTR [P2W] | 0 ± 0.31
21 | LELEERVTHFRDMLLERGVSAFSTWEKELHKIVFDPRYLLLNSEERKQIFEQFVKTR [P2E] | 0.88 ± 0.073

Row | Variant | abundance fitness
22 | LPKEERVTHFRDMLLERGVSAFSTWEKELHKIVFDPRYLLLNSEERKQIFEQFVKTR [L3K] | 0.487 ± 0.15
23 | LPCEERVTHFRDMLLERGVSAFSTWEKELHKIVFDPRYLLLNSEERKQIFEQFVKTR [L3C] | -0.857 ± 0.23
24 | LPHEERVTHFRDMLLERGVSAFSTWEKELHKIVFDPRYLLLNSEERKQIFEQFVKTR [L3H] | 0.663 ± 0.21
25 | LPNEERVTHFRDMLLERGVSAFSTWEKELHKIVFDPRYLLLNSEERKQIFEQFVKTR [L3N] | -0.031 ± 0.21
26 | LPDEERVTHFRDMLLERGVSAFSTWEKELHKIVFDPRYLLLNSEERKQIFEQFVKTR [L3D] | -0.135 ± 0.23
27 | LPSEERVTHFRDMLLERGVSAFSTWEKELHKIVFDPRYLLLNSEERKQIFEQFVKTR [L3S] | -0.704 ± 0.23
28 | LPFEERVTHFRDMLLERGVSAFSTWEKELHKIVFDPRYLLLNSEERKQIFEQFVKTR [L3F] | 0.04 ± 0.41
29 | LPGEERVTHFRDMLLERGVSAFSTWEKELHKIVFDPRYLLLNSEERKQIFEQFVKTR [L3G] | -0.214 ± 0.14
30 | LPIEERVTHFRDMLLERGVSAFSTWEKELHKIVFDPRYLLLNSEERKQIFEQFVKTR [L3I] | 0.427 ± 0.31
31 | LPVEERVTHFRDMLLERGVSAFSTWEKELHKIVFDPRYLLLNSEERKQIFEQFVKTR [L3V] | 0.28 ± 0.11
32 | LPWEERVTHFRDMLLERGVSAFSTWEKELHKIVFDPRYLLLNSEERKQIFEQFVKTR [L3W] | -0.116 ± 0.11
33 | LPREERVTHFRDMLLERGVSAFSTWEKELHKIVFDPRYLLLNSEERKQIFEQFVKTR [L3R] | 0.304 ± 0.07
34 | LPMEERVTHFRDMLLERGVSAFSTWEKELHKIVFDPRYLLLNSEERKQIFEQFVKTR [L3M] | 0.309 ± 0.18
35 | LPEEERVTHFRDMLLERGVSAFSTWEKELHKIVFDPRYLLLNSEERKQIFEQFVKTR [L3E] | 0.132 ± 0.2
36 | LPPEERVTHFRDMLLERGVSAFSTWEKELHKIVFDPRYLLLNSEERKQIFEQFVKTR [L3P] | -0.212 ± 0.4
37 | LPQEERVTHFRDMLLERGVSAFSTWEKELHKIVFDPRYLLLNSEERKQIFEQFVKTR [L3Q] | 0.591 ± 0.16
38 | LPAEERVTHFRDMLLERGVSAFSTWEKELHKIVFDPRYLLLNSEERKQIFEQFVKTR [L3A] | -0.337 ± 0.13
39 | LPYEERVTHFRDMLLERGVSAFSTWEKELHKIVFDPRYLLLNSEERKQIFEQFVKTR [L3Y] | 0.138 ± 0.23
